The target of assay [1] is GCF receptor with a deletion at aa 715 (GCSFRd715) (UniProt Q99062). The assay is described as follows: cell-based or functional assay.
For assay [2], the system named is T cells expressing the truncated NGFR. The assay is described as follows: Stimulation of negative control T cells expressing truncated NGFR for 7 days; flow cytometry. The class given is cell-based, human. As to conditions: 0.1 μg/ml. As to the method:
(§1) FIG. 12: T cells transduced to express (i) the thrombopoietin receptor (TPOR) or (ii) the GCF receptor with a deletion at aa 715 (GCSFRd715) are active and can drive T cell proliferation via the non-canonical JAK2 pathway. T cells expressing GCSFRd715, TPOR, or the truncated NGFR as a control were stimulated for 7 days with IL-2/IL-7/IL-15 (all at 5 ng/ml; denoted as CK; positive control condition), 0.1 μg/ml recombinant thrombopoietin (TPO), 0.1 μg/ml TPO agonist eltrombopag (EP), or 0.1 μg/ml GCSF. Cell number (top) or percent transgenic cells (bottom) were quantified using flow cytometry at 7 days.
(§2) Healthy donor T cells were transduced to express (i) the thrombopoietin receptor (TPOR) or (ii) the GCF receptor with a deletion at aa 715 (GCSFRd715). T cells expressing GCSFRd715, TPOR, or the truncated NGFR as a control were stimulated for 7 days with IL-2/IL-7/IL-15 (all at 5 ng/ml; denoted as CK; positive control condition), 0.1 μg/ml recombinant thrombopoietin (TPO), 0.1 μg/ml TPO agonist eltrombopag (EP), or 0.1 μg/ml GCSF. Cell number (FIG. 12, top) or percent transgenic cells (FIG. 12, bottom) were quantified using flow cytometry at 7 days.

A further assay concerns TPOR. The assay is described as follows: Phosphorylation of STAT3 and STAT5 in TPOR expressing T cells after 24 hours stimulation, flow cytometry. It is filed as cell-based, human. As to conditions: 0.1 μg/ml. On the procedure: FIG. 14: TPOR stimulation leads to activation of STAT3 and STAT5. Healthy donor T cells expressing TPOR or untransduced control T cells were stimulated for 24 hours with 5 ng/ml IL-2/IL-7/IL-15 (CK), 0.1 μg/ml TPO or 0.1 μg/ml Eltrombopag (EP). Following stimulation cells were fixed and the phosphorylation of STAT3 and STAT5 quantified using flow cytometry.
TPOR stimulation led to activation of STAT3 and STAT5 (FIG. 14). Healthy donor T cells expressing TPOR or untransduced control T cells were stimulated for 24 hours with 5 ng/ml IL-2/IL-7/IL-15 (CK), 0.1 μg/ml TPO, or 0.1 μg/ml Eltrombopag (EP). Following stimulation cells were fixed and the phosphorylation of STAT3 and STAT5 quantified using flow cytometry.

The test system of a further assay is T cells expressing TPOR. The assay is described as follows: Stimulation of T cells expressing TPOR for 7 days; cell number and percent transgenic cells by flow cytometry. It is filed as cell-based, human. As to conditions: 0.1 μg/ml; for TPOR fraction after addition of agonist: enriched from 12.9% without addition. As to the method: as §1
(§3) FIG. 13: Exemplary flow cytometry plots showing that exposure of transgenic cytokine receptor transduced cells to the cognate cytokine (i.e. GCSFRd715 to GCSF; TPOR to TPO or EP) leads to enrichment of CAR expressing cells at 7 days. Addition of GCSF enriched the GCSRFd715 transgenic cell fraction from 15.6% to 64.9% (top panel). Addition of TPO enriched the TPOR fraction from 12.9% to 82% and addition of EP enriched the TPOR fraction from 12.9% to 55.9% (bottom panel).
as §2

The target of assay [3] is thrombopoietin receptor (TPOR) (UniProt P40238). The assay is described as follows: cell-based or functional assay.
The subject of another assay is G-CSFR. In words: Enrichment of G-CSFR transgenic T cells upon administration of G-CSF. It is filed as cell-based. As to conditions: primary human T cells expressing G-CSFR. The source says:
FIG. 7: Strong and specific enrichment of transgenic cells upon administration of G-CSF.
Ectopic expression of a myeloid cytokine receptor (G-CSFR) can be used to modulate CAR-T proliferation, and these T cells could then be inhibited by JAK2 inhibitors (e.g., FDA-approved JAK2 inhibitors such as ruxolitinib and others) (FIG. 6). […] The G-CSF receptor can be further modified to mediate downstream signaling that is normally associated with the T cell activating cytokine IL2 (chimeric G-CSF receptor) (FIG. 8). A pTRPE construct was used for the overexpression of G-CSFR IL2Rβ/IL2RG cytokine receptor (FIG. 9). The HEK IL2 Blue reporter cell line receptor (www.invivogen.com/hek-blue-il2) was used for screening the synthetic cytokine.

In assay [4] the test system is T cells expressing GCSFRd715. In words: Stimulation of T cells expressing GCSFRd715 for 7 days; cell number and percent transgenic cells by flow cytometry. The class given is cell-based, human. To be noted: 0.1 μg/ml. On the procedure: as §1, §3
Healthy donor T cells were transduced to express (i) the thrombopoietin receptor (TPOR) or (ii) the GCF receptor with a deletion at aa 715 (GCSFRd715). […] Cell number (FIG. 12, top) or percent transgenic cells (FIG. 12, bottom) were quantified using flow cytometry at 7 days.

UniProt Q99062, sequence (Q99062 25-738 limits assumed, stated change not applied): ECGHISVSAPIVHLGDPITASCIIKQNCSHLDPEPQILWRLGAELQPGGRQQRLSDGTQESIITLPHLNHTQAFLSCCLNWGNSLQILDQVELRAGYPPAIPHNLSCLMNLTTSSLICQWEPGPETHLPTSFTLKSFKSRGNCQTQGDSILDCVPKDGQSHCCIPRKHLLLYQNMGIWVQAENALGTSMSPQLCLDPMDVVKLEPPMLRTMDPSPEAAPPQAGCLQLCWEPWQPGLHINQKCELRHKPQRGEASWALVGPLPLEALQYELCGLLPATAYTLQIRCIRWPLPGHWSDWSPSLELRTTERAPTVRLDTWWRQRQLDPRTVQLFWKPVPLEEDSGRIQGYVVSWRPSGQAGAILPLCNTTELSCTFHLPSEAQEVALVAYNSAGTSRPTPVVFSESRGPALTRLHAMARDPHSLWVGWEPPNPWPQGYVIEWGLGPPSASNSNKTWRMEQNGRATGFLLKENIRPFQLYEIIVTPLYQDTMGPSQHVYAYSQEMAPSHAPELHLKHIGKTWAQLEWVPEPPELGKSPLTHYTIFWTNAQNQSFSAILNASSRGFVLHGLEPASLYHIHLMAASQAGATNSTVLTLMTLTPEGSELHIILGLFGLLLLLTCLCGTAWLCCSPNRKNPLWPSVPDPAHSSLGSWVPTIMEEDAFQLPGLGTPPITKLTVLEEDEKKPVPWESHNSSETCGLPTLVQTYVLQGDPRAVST

As to “GCSF (from UniProt P09919 31-204) (ligand)”, the percent transgenic cells by flow cytometry after 7 days in assay [1] amounted to 64.9%.
Regarding TPO: recombinant thrombopoietin, the “Response of negative control cells (NGFR) to stimulation” value in assay [2] is given as “did not respond”. In the assay on TPOR, the “STAT5 and STAT3 phosphorylation in TPOR expressing T cells” value is “leads to STAT5 and STAT3 phosphorylation”. Further, in the assay on T cells expressing TPOR, the “Response of TPOR cells to stimulation (cell number)” value is listed as “responded” and the “TPOR fraction after addition of agonist” value was determined as 82%.
On to “recombinant thrombopoietin (TPO) (from UniProt P40225 22-353) (ligand)”, for which the percent transgenic cells by flow cytometry after 7 days in assay [3] came to 82%.
Take `CC1=NN(c2ccc(C)c(C)c2)C(=O)/C1=N\Nc1cccc(-c2cccc(C(=O)O)c2)c1O` [EP, eltrombopag, reference compound]: in the assay with T cells expressing TPOR, the “TPOR fraction after addition of agonist” value is listed as 55.9%.

B1: GCSF: cognate cytokine of the G-CSF receptor, used at 0.1 μg/ml (protein)
chain: TPLGPASSLPQSFLLKCLEQVRKIQGDGAALQEKLCATYKLCHPEELVLLGHSLGIPWAPLSSCPSQALQLAGCLSQLHSGLFLYQGLLQALEGISPELGPTLDTLQLDVADFATTIWQQMEELGMAPALQPTQGAMPAFASAFQRRAGGVLVASHLQSFLEVSYRVLRHLAQP
On to B1, for which, in the assay with G-CSFR, the “Enrichment of transgenic cells upon administration of G-CSF” value was “Strong enrichment”. In addition, in assay [2], the “Response of negative control cells (NGFR) to stimulation” value is on record as “did not respond”. Moreover, in the assay on T cells expressing TPOR, the “Response of TPOR cells to stimulation (cell number)” value is listed as “not”. Moreover, the “Response of GCSFRd715 cells to stimulation (cell number)” value in assay [4] is “responded”. In assay [4] (enriched from 15.6% without addition), the “GCSRFd715 transgenic cell fraction after addition of cytokine” value came out at 64.9%.

Values taken from patent US20250367288A1, “DELIVERY OF MULTI-CYTOKINE SIGNALS BY OVEREXPRESSION OF WILD-TYPE OR MUTANT SIGNAL TRANSDUCTION MOLECULES” (THE TRUSTEES OF THE UNIVERSITY OF PENNSYLVANIA, priority 2021, published 2025).
